Measured values from publication doi:10.1101/2021.03.01.433494 (bioRxiv, 2021).

What was measured:
[1] = molecular target: T1, M1 protein on the surface of Streptococcus pyogenes strain SF370 (Streptococcus pyogenes SF370 (emm1), UniProt Q99XV0, strain); experiment: far-Western, overlay or dot blot
[2] = molecular target: T1, M1 protein on the surface of …; experiment: flow cytometry on cells

B1: Ab32 (human monoclonal anti-M protein IgG) (antibody, V domains shown)
VH: EVQLVESGGGLVRPGGSLRLSCVASGFMFNEYYMSWIRQAPGKGLEWISFISNAGTYTNYAESVKGRFTISRDNAKDSLYLEMNSLRGEDTAVYYCARQGFDTRGEDAFEIWGQGTMVTVSS
VL: EIVLTQSPATLSLSPGERATLSCRASQPLSGYLAWYQQKPGQAPRLLIYNASKRATGIPARFTGSGSGTDFTLTISSLESEDFAVYYCQQRSGWPSIFTFGPGTKVDIK
B1: binds [1].

B2: Ab49 (human monoclonal anti-M protein IgG) (antibody, V domains shown)
VH: EVQLVESGGGLVQPGGSLRLSCAASGFTVSINYMSWVRQAPGKGLQWVSVIYSGGSTYYADSVKGRFTISRDNSKNTLYLQMNSLRAEDTAMYYCVRDSRFWGIFDYWGQGTLVTVSS
VL: EIVLTQSPATLSLSPGERATLSCRASQSVSSYLAWYQRKPGQAPRLLIYDASNRATGIPARFSGSGSGTDFTLTISSLEPEDFAVYYCQQRSNWPPTFGQGTKVEIK
B2: binds [2].

B3: Ab49 single Fab (IgdE-cleaved Ab49) (Fab, V domains shown)
VH: B2 VH
VL: B2 VL
B3: binds [2].
